Source: the nanobody polyreactivity screen of Harvey et al. (2022)

Assay: yeast display, Sf9 membrane polyspecificity reagent, FACS + sequencing; frameworks hold sequencing errors
Method in brief: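 A nanobody's polyreactivity label depends on the gate it was sorted from. Yeast display cells were stained with 10% biotinylated, detergent-solubilized Sf9 membrane reagent for 1 hour at 4 °C, enriched on streptavidin microbeads and sorted by FACS. The low and high (top ~1%) gates were set on anti-HA fluorescence for expression and streptavidin fluorescence for reagent binding.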

Sequence	polyreactivity (PSR sort gate)
QVQLVESGGGLLQAGGSLRLSCAASGSTFYPYAMRWYRQAPGKERELVAAISSGGSTSYADSVKGRFTISRDNAKNTVYLQMNCLKPEDTAVYYCNGSSPGAVPVYDYDYWGQGTQVTVSS	low polyreactivity
QVQLVESGGGLLQAGGSLRLSCAASGTIFAYYAMGWYRPAPEKERELVARITYSTDRTYYADSVKGRFTISRDNAKNTVYLQMNRLKPEDTAVYYCAVETWWGFKRYKFDYWGLGTQVTVSS	low polyreactivity
QVQLVESGGGLLQAGGSLRLSCASSGSTFGGNAMGRYRQAPGKERELVAAITVGGDSTYYADSVKGRFTISRDNAKNTVYLQMNSLKPEDTAVYYCNASNVYFWFVTLEFDYWGQGTQVTVSS	low polyreactivity
QVQLVESGGGLLQAGGSLRLSSAASGFIFNWYAMGGYRQAPGKERELVAAITSGGSTNYADSVKGRFTISRDNAKNTVYLQMNSLKPEDTAVYYCAARHWRRYGYCGQGTQVTVSS	high polyreactivity
QVQLVESGGGLLQAGGSLRLSSAASGRTFSTNAMGWYRQAPGKERELVAAITSRGGSTYYADSVKGRFTISRDNAKNTVYLQMNSLKPEDTAVYYCAAGWLPKYGYWGQGTQVTVSS	low polyreactivity
QVQLVESGGGLLQAGGSLRLSSAASGVYAMGWYRQAPGKERELVAAISRRGGSTYYADSVKGRFTISRDNAKNTVYLQMKSLNPADTAVYYCAADYTSRTRGNRDRLDYWGQGTQVTVSS	high polyreactivity
QVQLVESGGGLLQAGRSLRLSCAASGSIIWLYAMGWYRQAPGKERELVAAISWTGTSTNYADSVKGRFTISRDYAKNTVYLQMNSLKPEDTAVYYCAKRWYNQKLFGYEDEYDYWGQGTQVTVSS	low polyreactivity
QVQLVESGGGLVEAGGSHRLSCAASGSTFNYYAMGWYRQAPGKERELVASISGGGSTSYADSVKGRFTISRDHAKNTVYLQMNSLNPEHTAVYYCAATPIGQHFPLDYWGPGTQVTVSS	low polyreactivity
QVQLVESGGGLVEAGGSLRISCAASGSIFGYYAMGWYRQAPGKERELVAAISYSGGSTNYADSVKGRFTISRDTAKNSVSLQMNSLKPEDTAGYAFATSRSRRYVEFYRYDYWGQGPQVTVSS	high polyreactivity
QVQLVESGGGLVEAGGSLRLSCAASGLTIRWYAMGWYRQAPGKESEVVATISSGGSTNYADSVKGRFTISRDNAKNTVYFQMNSLTPEDTAVYYCNAYFRGYYHATIGMDYWGQGTQVTVSS	high polyreactivity
QVQLVESGGGLVEAGGSLRLSCAASGSTFVIYTIGCYRQAPGTQRELVAAISSSGGITYYSDSVKGRFTISRDNAKNTVYLQMNSLKPEDTAVYYCAADSRSAYSPYYYWGQGTQVTVSS	high polyreactivity
QVQLVESGGGLVEAGGSLRLSSAASGINFKMYAMVWSRQAPGKERELVADITYVGSTKYADSVKGRFTISRDNAKNTFYLQMNSLKPEDTAVYYFNAAQYYWYEYDYWGQGTQVTVSS	low polyreactivity
QVQLVESGGGLVEAVGSLRLSCAASGINFQGNAMGWSRQAPGKERELVASITAGGDTTYYADSVKGRFTISRDNAKNTVYFQMNSLKPEDTAVYYCATRLYGYWPYGFDYWGQGTQVTVSS	low polyreactivity
QVQLVESGGGLVHAGCRLRLSCAPSGSILYYNAMGGYRQAPGNERELVAAITSGGSTYADSVKGRFTISRDNAKNTVYLQMYSLKPEDTAVDYCAADLDWSLSVFGTTLEHDDWGQGTQVTVSS	low polyreactivity
QVQLVESGGGLVHAGCSLRLSCAASGFTFGVYAMGWYRQAPGKERELVAAISTTVGSTYYADSVKGRFTISRDNAKNTFYLQMNSLKPEDTAVYYCAAEYTVYINYYIYEYWGQGTQVTVSS	low polyreactivity
QVQLVESGGGLVHAGCSLRLSCAASVSTFQVYGLGWYRQAPGKEREMVAAISRSGVRTYYADSVKARFTMSRDNAKNTVYLQMNSLKPEDTAVYYCAKTYQSTTSKSGYYYWGQGTQVTVSS	high polyreactivity
QVQLVESGGGLVHAGGSHRLSCAASGIIVYVNAMGLYRQAPGKERELVSAITFGGDSTYYADSVKGRFTISRDTAKNTVYLQMNSLKPEDTAVYFCATDGDPAYPELEYWGQGTQVTVSS	low polyreactivity
QVQLVESGGGLVHAGGSLLLSCSASGRTFDSNAMGWSRQAPGKERELVAAISGSGDTTYYADSVKGRFTISRDNAKNTVYLQMNSLKPEDTAVYYCADDHDSSGSGYEYWGQGTEVTVSS	low polyreactivity
QVQLVESGGGLVHAGGSLRISCAASGSTFPYYAMGWYRQAPVKERELVAAISRSGGSTYYADSVKGRFTISRDNAKNTVYLQMNRLKPEDTAVYYCNARLARWGSYEYNYWGQGTQVNVSS	low polyreactivity
QVQLVESGGGLVHAGGSLRISCAPSGLTFLYNAMGWYRQAPGKERELVAAISQSAGSTYYADSVKGRFTISRDNAKNTVYLQMNSLKPEDTAVYYCAAEWDSPDLVIYDYWGQGTQVTVSS	low polyreactivity
QVQLVESGGGLVHAGGSLRLICASSGFIFWAYAMGWYRQAPGKERELVAAISNNGVSTYYADSVKGRFTISRDIAKNTVYLQMNSLIPEDTAVYYCGATGVRSKRLASQWKLDYWGQGTQVTVST	high polyreactivity
QVQLVESGGGLVHAGGSLRLSCAAAGSTFYYYAMGWYRQAPGKERELVARISDGDSTNYADSVKGRFTISRDNAKNTVYLQMNSLKPEDTAVYYCAAQHWYLGYGYWGQGTQVTVSS	low polyreactivity
QVQLVESGGGLVHAGGSLRLSCAACGTTFINYAMGWYRQAPGKVRELVAVITSDDGSTYYADSVKGRFTISRDNAKNTVYLQMNSLKPEDTAVYYCAADYYDQRYRPGPWYDYWGQGTQVTVSS	low polyreactivity
QVQLVESGGGLVHAGGSLRLSCAASGFIFPWYAMGWSRQAPGKERELVAIISWDTGSTYYADSVKGRFTISRDNAKNTVYLQINRLKPEDSAVYYCVAYVGSTYSAPEYYWGQGTQVTVSS	low polyreactivity
QVQLVESGGGLVHAGGSLRLSCAASGFIYPGNAKGWYIQAPGKERELVAAISNSGSRTYYADSVKGRFTISRDHAMNTVYLQMNSLKPEDTAVYYCNADVDNRGWPYDYWGQGTQVNVSS	low polyreactivity
QVQLVESGGGLVHAGGSLRLSCAASGFTCPYYPMGWYRQAPGKERELVDVISRSGGSTYYADSVKGRFTISRDNAKNTVYLQMNSLKPEDTAVYYCAKRYSLTGGKRTGYYWGQGTQVTVSS	high polyreactivity
QVQLVESGGGLVHAGGSLRLSCAASGFTFGDNAMGSYRQAPGKERELVADIDSDGSTYYADSVKGRFTISRDNAKNTVYLQMNSLKPEDTAVYYCAKRQAFKQAPYEYWGQCTQVTVSS	low polyreactivity
QVQLVESGGGLVHAGGSLRLSCAASGFTFIRYAMGWYRQAPGKERELVAAIRGTGTSTYYADSVKGRFTISRDNAKNTVYFQMNSLKPEDTAVYYCAAVHWWSSSLGMYYWGQGSQVTVSS	low polyreactivity
QVQLVESGGGLVHAGGSLRLSCAASGFTFLRYVMGWYRQTPGKERELVAAISYSGGRTYYADSVKGRFTISRDNAKKTVYLQMNSLKPEDTAVYYCAAESFYPAGFRGYWGQGTQVTVSS	high polyreactivity
QVQLVESGGGLVHAGGSLRLSCAASGFTFSYYAMVWYREAPGKEREFVAAISRSGGSTYYADSVKGRFTISRDNAKNTVYLQMNSLYPVDTAVYYCATELSYRHGYWGQGTQVSVSS	high polyreactivity
